The source of these data is patent US12329801B2, “Regenerative polypeptides and uses thereof” (JUVENA THERAPEUTICS, INC., priority 2021, dated 2025).

Series [1] is described as follows: Backbone cleavage on expression from CHO cells (reducing SDS-PAGE, Western blot). On the set-up: species or system Chinese Hamster. To be noted: expressed from CHO cells. On the procedure:
The amino acid backbone of IGF2 is cleaved when expressed from Chinese Hamster Ovary (CHO) cells (FIG. 13A) as visualized on a reducing SDS-PAGE and Western blot (FIG. 13B). The CHO cells were grown in a 37° C. incubator with a humidified atmosphere of 8% CO2 on an orbital shaker platform with a shaking speed 125 rpm to reach 4E6 cells/mL, followed by transferring the calculated volume of cells to fresh, pre-warmed ExpiCHO™ Expression Medium in a shake flask. Incubated flasks in a 37° C. incubator with a humidified atmosphere of 8% CO2 shook on an orbital shaker platform until cultures reached a density of 4×106−6×10^6 viable cells/mL.
After mixing each plasmid with 100 ul SFM in a microtube; ExpiFectamine (8 ul ×10.5=84 ul) with OptiPro medium (92 ul×10.5=966 ul) in a microtube; adding 100 ul into the plasmid tube and mix by pipetting; After 5 min, add 200 ul into each well and swirl to mix. mix enhancer (15×10.2=153 ul) with feed ([…]), add 615 ul into each well. Culture supernatant collected at intervals was spun down at low speed and high speed, then frozen at −80 deg. Aliquots were analyzed for protein concentration by nanodrop, and then an equivalent amount loaded onto 4-12% SDS-PAGE gels for molecular weight distribution analysis. […]

A short description of series [2]: Murine pharmacokinetics, intravenous, ELISA, non-compartment analysis. In kind it is in vivo, mice. The settings on record: mice 10-12 weeks old, dose 10 mg/kg (HSA-IGF2R61A), 600 ug/kg (IGF2). On the procedure:
Murine pharmacokinetics (PK) represents the absorption, distribution, metabolism, and elimination of drugs from the body. The pharmacokinetic profile of the therapeutic polypeptides were determined in mice (10-12 weeks old). Mice were fed ad libitum and housed under controlled conditions of lighting (12-hour light/12-hour dark) and temperature (22-24° C.). Mice were allowed to acclimate for 3 days prior to the initiation of the experiment. Intravenous (IV) injection in 10-12 weeks old mice. Engineered mitogenic polypeptides concentrations in the samples were measured by ELISA. Various pharmacokinetics will be calculated as well as the absorption/elimination dynamics following different routes of administration.

As to “IGF2: Human IGF2 amino acid sequence, SEQ ID NO: 29”, in series [1], the “cleavage of the IGF2 amino acid backbone” value is listed as “is cleaved”. In series [2], this substance yielded a Half-life of 2.85 h.
